Test results as given in patent publication US20240117074A1 (published 2024).
Numbering of substitutions follows the chain as printed. One block for each binder: values may come before it.

Legend:
[1] = target: T1, human CEACAM5, recombinant soluble (hCEACAM-5, R&D Systems #4128-CM-050) (human, UniProt P06731 35-685); experiment: dual target ELISA: CEACAM5 coated, biotinylated hCD40-muIg detection
T1 construct: Bought protein; also called Human CEACAM5-His; monomeric human CEACAM5-His
T1 sequence (looked up): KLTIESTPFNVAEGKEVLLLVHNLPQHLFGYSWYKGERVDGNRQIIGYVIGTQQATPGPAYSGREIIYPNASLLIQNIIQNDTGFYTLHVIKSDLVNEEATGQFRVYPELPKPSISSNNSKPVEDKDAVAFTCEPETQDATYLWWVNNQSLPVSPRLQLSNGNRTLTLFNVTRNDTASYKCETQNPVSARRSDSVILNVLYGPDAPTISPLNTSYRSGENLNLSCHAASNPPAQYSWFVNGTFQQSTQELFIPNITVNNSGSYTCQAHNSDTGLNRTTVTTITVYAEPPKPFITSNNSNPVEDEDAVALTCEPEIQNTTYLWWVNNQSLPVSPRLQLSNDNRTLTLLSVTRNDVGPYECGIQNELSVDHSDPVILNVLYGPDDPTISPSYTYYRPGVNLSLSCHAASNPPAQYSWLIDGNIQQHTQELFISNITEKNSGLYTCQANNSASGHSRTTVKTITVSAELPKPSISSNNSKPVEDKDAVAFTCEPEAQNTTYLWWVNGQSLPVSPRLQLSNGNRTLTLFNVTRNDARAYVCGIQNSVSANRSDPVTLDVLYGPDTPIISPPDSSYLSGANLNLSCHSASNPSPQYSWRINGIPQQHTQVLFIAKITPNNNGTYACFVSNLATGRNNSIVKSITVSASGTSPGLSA
Description: ELISA plates were coated with human EpCAM, bsAb was added followed by detection using goat anti human-kappa light chain-HRP.
96-well plates were coated with 0.5 μg/mL antigen, hCEACAM-1 (2244-CM-050, R&D Systems), hCEACAM-5 (4128-CM-050, R&D Systems), hCEACAM-6 (3934-CM-050, R&D Systems) or CEACAM-8 (9639-CM-050, R&D Systems) in PBS over night at 4° C. After washing in PBS/0.05% Tween 20 (PBST), the plates were blocked with PBST, 2% BSA for at least 30 minutes at room temperature before a second round of washing. RUBY bsAbs, diluted in PBST, 0.5% BSA, were then added and allowed to bind for at least 1 hour at room temperature. […] Finally, a final round of washing was performed and bound complexes detected using SuperSignal Pico Luminescent as substrate and luminescence signals were measured using Fluostar Optima.

[2] = target: T2, biotinylated human CD40-mouse Fc (Ancell #504-030) (human, UniProt P25942 21-193, biotinylated); experiment: Octet BLI, captured CD40mFc-biotin, bsAb in solution
T2 construct: Bought fusion protein; also called hCD40-muIg; CD40mFc-biotin; not shown: mouse Ig Fc of the bought fusion protein
T2 sequence (P25942 21-193): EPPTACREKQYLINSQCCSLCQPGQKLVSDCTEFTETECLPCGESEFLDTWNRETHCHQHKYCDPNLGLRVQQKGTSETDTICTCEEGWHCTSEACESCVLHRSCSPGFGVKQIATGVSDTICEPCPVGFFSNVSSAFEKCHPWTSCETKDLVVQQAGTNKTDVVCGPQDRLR

[3] = target: CD40 expressed on cells (CD40 reporter cells, HEK Blue CD40L cells, primary B cells, tumor APCs) (human, UniProt P25942 21-277); experiment: cell-based or functional assay
Chain of CD40 expressed on cells (CD40 reporter cells, HEK Blue CD40L cells, primary B cells, tumor APCs) (P25942 21-277): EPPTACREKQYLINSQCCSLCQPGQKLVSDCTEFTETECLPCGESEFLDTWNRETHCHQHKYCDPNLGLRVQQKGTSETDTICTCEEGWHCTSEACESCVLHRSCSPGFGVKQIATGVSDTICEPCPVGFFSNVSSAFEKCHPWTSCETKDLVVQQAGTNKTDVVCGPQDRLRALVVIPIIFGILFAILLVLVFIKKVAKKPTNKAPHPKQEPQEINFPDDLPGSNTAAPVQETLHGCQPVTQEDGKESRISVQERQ

[4] = target: T1, human CEACAM5, recombinant soluble …; experiment: Octet BLI, captured bsAb, soluble antigen
[5] = target: T1, human CEACAM5, recombinant soluble …; experiment: Octet BLI, captured bsAb, monomeric CEACAM5 in solution
[6] = target: T3, monomeric Cynomolgus CEACAM5-His (Sino Biological #90891-C08H) (cynomolgus); experiment: Octet BLI, captured bsAb, soluble antigen
T3 chain: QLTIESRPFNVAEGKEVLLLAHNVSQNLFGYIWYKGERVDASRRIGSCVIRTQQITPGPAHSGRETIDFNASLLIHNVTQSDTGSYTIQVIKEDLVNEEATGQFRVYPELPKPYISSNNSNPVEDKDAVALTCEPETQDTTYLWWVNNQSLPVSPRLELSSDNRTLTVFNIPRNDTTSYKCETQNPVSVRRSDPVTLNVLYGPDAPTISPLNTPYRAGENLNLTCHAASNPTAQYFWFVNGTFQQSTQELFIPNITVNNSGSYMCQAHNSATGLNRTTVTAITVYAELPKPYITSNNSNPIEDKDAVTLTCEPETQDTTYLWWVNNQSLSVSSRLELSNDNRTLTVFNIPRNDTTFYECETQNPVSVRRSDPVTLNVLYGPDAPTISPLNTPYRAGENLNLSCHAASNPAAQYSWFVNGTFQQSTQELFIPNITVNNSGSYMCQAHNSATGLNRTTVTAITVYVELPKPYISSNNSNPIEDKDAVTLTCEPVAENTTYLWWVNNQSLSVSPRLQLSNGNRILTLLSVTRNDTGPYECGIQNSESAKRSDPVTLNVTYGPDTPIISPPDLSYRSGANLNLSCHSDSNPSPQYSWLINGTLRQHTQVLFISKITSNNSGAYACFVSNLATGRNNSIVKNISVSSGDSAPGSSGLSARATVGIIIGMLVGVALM

B2: AC_05293 (bispecific antibody)
chain 1: EVQLLESGGGLVQPGGSLRLSCAASGFTFSSYAMSWVRQAPGKGLEWVSGIGSYGGGTYYADSVKGRFTISRDNSKNTLYLQMNSLRAEDTAVYYCARYVNFGMDYWGQGTLVTVSS
chain 2: DIQMTQSPSSLSASVGDRVTITCRASQSISSYLNWYQQKPGKAPKLLIYAASSLQSGVPSRFSGSGSGTDFTLTISSLQPEDFATYYCQQYGRNPPTFGQGTKLEIK
chain 3: EVQLLEQSGAELVRPGTSVKISCKASGYAFTNYWLGWVKQRPGHGLEWIGDIFPGSGNIHYNEKFKGKATLTADKSSSTAYMQLSSLTFEDSAVYFCARLRNWDEPMDYWGQGTTVTVSS
chain 4: ELVMTQSPSSLTVTAGEKVTMSCKSSQSLLNSGNQKNYLTWYQQKPGQPPKLLIYWASTRESGVPDRFTGSGSGTDFTLTISSVQAEDLAVYYCQNDYSYPLTFGAGTKLEIK
Kd [2]: 76 nM | koff [2]: 0.00062 s⁻¹ | kon [2]: 8300 M⁻¹ s⁻¹

B3: AC_05300 (bispecific antibody)
chain 1: B2 chain 3
chain 2: B2 chain 4
chain 3: B2 chain 1
chain 4: B2 chain 2
Kd [2]: 8.5 nM | koff [2]: 0.0046 s⁻¹ | kon [2]: 540000 M⁻¹ s⁻¹

B4: AC_05330 (bispecific antibody)
chain 1: EVQLLESGGGLVQPGGSLRLSCAASGFTFSTYGMHWVRQAPGKGLEWLSYISGGSSYIFYADSVRGRFTISRDNSENALYLQMNSLRAEDTAVYYCARILRGGSGMDLWGQGTLVTVSS
chain 2: QSVLTQPPSASGTPGQRVTISCTGSSSNIGAGYNVYWYQQLPGTAPKLLIYGNINRPSGVPDRFSGSKSGTSASLAISGLRSEDEADYYCAAWDKSISGLVFGGGTKLTVLG
chain 3: not shown
chain 4: B2 chain 2 with Y91T, G92Y, R93G, N94Y, P95L, P96H
Kd [2]: 0.45 nM | koff [2]: 1.6e-05 s⁻¹ | kon [2]: 35000 M⁻¹ s⁻¹

B5: AC_05331 (bispecific antibody)
chain 1: not shown
chain 2: B2 chain 2 with Y91T, G92Y, R93G, N94Y, P95L, P96H
chain 3: B4 chain 1
chain 4: B4 chain 2
Kd [2]: 0.23 nM | koff [2]: 8.1e-06 s⁻¹ | kon [2]: 36000 M⁻¹ s⁻¹

The remaining lines, values ahead:

binding result [1]: binds
B1: Multi39 (bispecific antibody)
heavy 1: not shown
light: not shown
heavy 2: EVQLLESGGGLVQPGGSLRLSCAASGFTFYDHAMSWVREAPGKGLEWVSAISGSYGSTGYADSVKGRFTISRDNSKNTLYLQMNSLRAEDTAVYYCARWGGWAGDIDYWGQGTLVTVSSASTKGPSVFPLAPSSKSTSGGTAALGCLVKDYFPEPVTVSWNSGALTSGVHTFPAVLQSSGLYSLTSVVEVPSSSLGTQTYICNVNHKPSNTKVDKKVEPKSC
notes: copies: 2 + 2 + 2

EC50 of HEK Blue CD40L reporter activation (SEAP), CHO-CEACAM5 crosslinking, 0 Raji sink cells/well [3]: 0.03 nM | EC50 of HEK Blue CD40L reporter activation (SEAP), CHO-CEACAM5 crosslinking, 10 000 Raji sink cells/well [3]: 0.05 nM | EC50 of HEK Blue CD40L reporter activation (SEAP), CHO-CEACAM5 crosslinking, 30 000 Raji sink cells/well [3]: 0.08 nM | EC50 of HEK Blue CD40L reporter activation (SEAP), CHO-CEACAM5 crosslinking, 90 000 Raji sink cells/well [3]: 0.23 nM | Kd [4]: < 0.001 nM | koff [4]: < 1e-07 s⁻¹ | kon [4]: 520000 M⁻¹ s⁻¹ | Kd [5]: 1.8 nM | koff [5]: 0.00042 s⁻¹ | kon [5]: 240000 M⁻¹ s⁻¹
B6: AC_05339 (bispecific antibody)
chain 1: not shown
chain 2: DIQMTQSPSSLSASVGDRVTITCRASQSISSYLNWYQEKPGKAPKLLIYAASSLQSGVPSRFSGSGSGTDFTLTISSLQPEDFATYYCQQAGNPHTFGQGTKLEIKRTVAAPSVFIFPPSDEQLKSGTASVVCYLNNFYPREAKVQWKVDNALQSGNSQESVTEQDSKDSTYSLWSTLTLSKADYEKHKVYACEVTHQGLSSPVTKSFNRGEC
chain 3: EVQLLESGGGLVQPGGSLRLSCAASGFTFSTYGMHWVREAPGKGLEWLSYISGGSSYIFYADSVKGRFTISRDNSKNTLYLQMNSLRAEDTAVYYCARILRGGSGMDLWGQGTLVTVSSASTKGPSVFPLAPSSKSTSGGTAALGCLVKDYFPEPVTVSWNSGALTSGVHTFPAVLQSSGLYSLTSVVEVPSSSLGTQTYICNVNHKPSNTKVDKKVEPKSC

Kd [6]: 20 nM | koff [6]: 0.0038 s⁻¹ | kon [6]: 190000 M⁻¹ s⁻¹ | Kd [4]: 1 nM | koff [4]: 0.00053 s⁻¹ | kon [4]: 510000 M⁻¹ s⁻¹
B7: AC_05355 (bispecific antibody)
chain 1: not shown
chain 2: DIQMTQSPSSLSASVGDRVTITCRASENIFSYLAWYQEKPGKAPKLLIYNTRTLQSGVPSRFSGSGSGTDFTLTISSLQPEDFATYYCQHHYGTPFTFGQGTKLEIKRTVAAPSVFIFPPSDEQLKSGTASVVCYLNNFYPREAKVQWKVDNALQSGNSQESVTEQDSKDSTYSLWSTLTLSKADYEKHKVYACEVTHQGLSSPVTKSFNRGEC
chain 3: B6 chain 3
